For assay [1], the target named is HB-EGF protein (R&D Systems, Inc., 259-HE) (human, UniProt Q99075 63-148). The assay is described as follows: cell-based or functional assay.
The target in assay [2] is proHB-EGF mutated at the protease cleavage site, expressed on Ba/F3 cells (HB-EGF_Ba/F3) (human) (UniProt Q99075). The assay is described as follows: flow cytometry, hybridoma culture supernatant on HB-EGF_Ba/F3 cells, FITC-anti-mouse IgG; EXP. 1 (no-mAb control 19.1). For orientation: In flow cytometry, cells or beads pass a laser one at a time.
Assay [3] shares this target. The assay is described as follows: flow cytometry, hybridoma culture supernatant on HB-EGF_Ba/F3 cells, FITC-anti-mouse IgG; EXP. 2 (no-mAb control 6.9).

Chain of proHB-EGF mutated at the protease cleavage site, expressed on Ba/F3 cells (HB-EGF_Ba/F3) (human) (Q99075 20-208 limits assumed, change not shown): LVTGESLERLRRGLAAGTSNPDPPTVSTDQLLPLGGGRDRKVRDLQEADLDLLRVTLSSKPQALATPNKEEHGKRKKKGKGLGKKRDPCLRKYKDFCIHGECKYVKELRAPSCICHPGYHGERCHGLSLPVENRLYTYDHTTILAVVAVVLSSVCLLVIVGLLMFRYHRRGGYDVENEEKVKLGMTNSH
Chain of HB-EGF protein (R&D Systems, Inc., 259-HE) (Q99075 63-148 limits assumed): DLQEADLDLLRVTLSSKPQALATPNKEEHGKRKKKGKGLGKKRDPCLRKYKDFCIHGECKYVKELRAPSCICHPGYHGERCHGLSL

B1: HC-15 (antibody, V domains shown)
VH: EVQLQQSGPELVKPGASVKISCKASGYSFTGYYMHWVKQSPEKRLEWIGEINPRTGITTYNQKFKAKATLTVDKSSSTAYMQLKSLTSEDSAVYYCARVGSSGPFTYWGQGTLVTVSA
VL: DIVMTQSPSSLSVSAGDKVTMSCKSSQSLLNSRNQKNYLAWYQQKPWQPPKLLIYGASTRESGVPDRFTGSGSGTDFTLTISSVQAEDLAVYYCQNDYSYPFTFGTGTKLEIK
In the case of B1, the “EC50 (nM) of the growth-inhibiting effect on EGFR_Ba/F3 cells in the presence of HB-EGF (80 ng/mL)” value in assay [1] was determined as 3.8 nM. Besides, the results for the FACS (GEO-mean) in assay [2] and in assay [3] were 594 GEO-mean and 234 GEO-mean, respectively.

These data come from patent US20100273988A1 (Chugai, published 2010).
